Measured values as given in article PMC5391180.

Target: actin filaments of MCF-7 cells, marked by Lifeact-RFP (human (endogenous in MCF-7)) (UniProt P60709)
Test: FRET or BRET

GFP-tagged nonmuscle myosin IIC1 (alternatively spliced isoform of nonmuscle myosin heavy chain IIC) (natural protein), sequence (Q7Z406 2-1995): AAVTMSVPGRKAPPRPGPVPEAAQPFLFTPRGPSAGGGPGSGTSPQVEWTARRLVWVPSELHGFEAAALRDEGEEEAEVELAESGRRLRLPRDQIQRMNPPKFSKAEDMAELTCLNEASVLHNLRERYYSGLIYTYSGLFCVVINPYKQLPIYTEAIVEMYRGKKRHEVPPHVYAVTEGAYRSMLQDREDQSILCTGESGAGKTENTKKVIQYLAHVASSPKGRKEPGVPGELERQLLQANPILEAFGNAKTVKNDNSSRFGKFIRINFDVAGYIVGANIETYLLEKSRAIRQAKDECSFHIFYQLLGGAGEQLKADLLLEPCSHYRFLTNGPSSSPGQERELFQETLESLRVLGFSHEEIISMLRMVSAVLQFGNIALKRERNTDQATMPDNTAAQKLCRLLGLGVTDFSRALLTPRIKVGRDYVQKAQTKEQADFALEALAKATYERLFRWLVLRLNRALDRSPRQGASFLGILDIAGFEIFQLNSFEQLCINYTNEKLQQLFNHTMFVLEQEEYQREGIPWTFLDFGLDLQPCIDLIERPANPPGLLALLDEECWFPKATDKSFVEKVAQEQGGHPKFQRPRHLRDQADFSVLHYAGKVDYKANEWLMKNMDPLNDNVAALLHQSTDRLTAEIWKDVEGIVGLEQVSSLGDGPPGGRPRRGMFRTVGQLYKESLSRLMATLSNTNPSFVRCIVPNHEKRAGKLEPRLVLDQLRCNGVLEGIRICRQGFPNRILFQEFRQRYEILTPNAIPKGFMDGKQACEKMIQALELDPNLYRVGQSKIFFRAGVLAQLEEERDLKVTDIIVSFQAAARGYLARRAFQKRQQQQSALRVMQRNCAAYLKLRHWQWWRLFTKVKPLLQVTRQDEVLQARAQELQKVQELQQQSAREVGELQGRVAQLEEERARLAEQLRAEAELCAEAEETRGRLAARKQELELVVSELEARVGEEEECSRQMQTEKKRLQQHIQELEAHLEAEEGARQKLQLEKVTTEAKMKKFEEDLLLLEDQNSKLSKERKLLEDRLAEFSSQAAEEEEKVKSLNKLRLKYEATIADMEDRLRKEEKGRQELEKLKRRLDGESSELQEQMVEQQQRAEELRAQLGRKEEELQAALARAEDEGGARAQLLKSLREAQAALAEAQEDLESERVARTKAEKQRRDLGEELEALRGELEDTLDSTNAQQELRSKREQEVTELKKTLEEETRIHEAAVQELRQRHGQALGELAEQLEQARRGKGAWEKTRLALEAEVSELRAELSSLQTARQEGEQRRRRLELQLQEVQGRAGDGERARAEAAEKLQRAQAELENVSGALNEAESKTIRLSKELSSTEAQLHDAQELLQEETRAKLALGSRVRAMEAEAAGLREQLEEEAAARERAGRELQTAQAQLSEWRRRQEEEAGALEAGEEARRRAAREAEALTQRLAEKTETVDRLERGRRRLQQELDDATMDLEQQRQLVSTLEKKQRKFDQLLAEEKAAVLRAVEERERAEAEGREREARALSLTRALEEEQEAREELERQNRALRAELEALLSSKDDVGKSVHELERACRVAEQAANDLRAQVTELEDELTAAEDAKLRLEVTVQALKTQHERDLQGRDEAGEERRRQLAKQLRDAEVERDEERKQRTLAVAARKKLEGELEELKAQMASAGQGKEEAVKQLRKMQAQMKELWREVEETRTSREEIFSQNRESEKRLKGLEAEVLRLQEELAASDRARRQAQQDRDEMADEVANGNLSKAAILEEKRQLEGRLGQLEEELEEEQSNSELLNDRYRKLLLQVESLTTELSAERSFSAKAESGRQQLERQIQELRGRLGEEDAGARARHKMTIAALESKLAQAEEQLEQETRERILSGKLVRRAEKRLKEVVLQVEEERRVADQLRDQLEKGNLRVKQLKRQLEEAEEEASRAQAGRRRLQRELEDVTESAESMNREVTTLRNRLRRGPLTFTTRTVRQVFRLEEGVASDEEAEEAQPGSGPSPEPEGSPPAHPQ

dwell time tau, high-FRET state, bleb cortex [s] | shorter average dwell time tau1, high-FRET state, cell cortex [s] | longer average dwell time tau2, high-FRET state, cell cortex [s] | Substance
46 | 33 |  | GFP-tagged nonmuscle myosin IIA (nonmuscle myosin heavy chain IIA, NMHC-IIA) (from UniProt P35579 1-1960) (natural protein)
93 | 35 | 110 | GFP-tagged nonmuscle myosin IIB (nonmuscle myosin heavy chain IIB, NMHC-IIB) (from UniProt P35580 1-1976) (natural protein)
 | 35 |  | GFP-tagged nonmuscle myosin IIC1 (alternatively spliced isoform of nonmuscle myosin heavy chain IIC) (natural protein)
